Data reported in publication PMC6796883.

Experiments:
Assay in all cases: ITC; 25 °C, MicroCal PEAQ-ITC; 50 μM protein in the cell titrated with 17 injections of 750 μM peptide; in the absence of NAD+; 'one set of binding sites' model
[1] = target: SIRT5Δ (human SIRT5 residues 34-302) (human) (UniProt Q9NXA8)
[2] = target: SIRT6 (human SIRT6 residues 1-355) (human) (UniProt Q8N6T7)
[3] = target: CobBΔ (E. coli CobB residues 38-279) (E. coli) (UniProt P75960)
[4] = target: SIRT2Δ (human SIRT2 residues 34-356) (human) (UniProt Q8IXJ6)
Sequence of SIRT2Δ (human SIRT2 residues 34-356) (human) (Q8IXJ6 34-356, stated change not applied): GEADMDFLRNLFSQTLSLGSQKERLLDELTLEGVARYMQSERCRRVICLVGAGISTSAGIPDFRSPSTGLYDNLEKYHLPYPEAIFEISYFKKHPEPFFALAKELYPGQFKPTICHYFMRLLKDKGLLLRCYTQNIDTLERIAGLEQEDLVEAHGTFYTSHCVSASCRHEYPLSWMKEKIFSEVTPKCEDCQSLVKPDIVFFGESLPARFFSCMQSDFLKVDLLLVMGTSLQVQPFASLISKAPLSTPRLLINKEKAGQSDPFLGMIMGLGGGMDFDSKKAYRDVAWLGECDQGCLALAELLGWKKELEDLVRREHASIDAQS

[5] = target: SIRT1Δ (human SIRT1 NAD+-dependent deacetylase domain 234-510 with C-terminal regulatory region 641-665) (human) (UniProt Q96EB6)

Sequence of SIRT6 (human SIRT6 residues 1-355) (human) (Q8N6T7 whole entry, the tested form may be a part): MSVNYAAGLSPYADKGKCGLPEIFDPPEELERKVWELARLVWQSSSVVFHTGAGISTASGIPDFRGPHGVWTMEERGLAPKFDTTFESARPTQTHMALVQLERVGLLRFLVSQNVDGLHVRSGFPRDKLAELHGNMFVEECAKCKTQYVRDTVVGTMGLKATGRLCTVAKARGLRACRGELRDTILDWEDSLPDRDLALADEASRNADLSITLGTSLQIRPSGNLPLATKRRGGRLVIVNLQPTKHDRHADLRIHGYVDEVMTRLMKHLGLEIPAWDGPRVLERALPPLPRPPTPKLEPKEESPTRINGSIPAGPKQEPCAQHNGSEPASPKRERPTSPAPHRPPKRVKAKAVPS
Sequence of SIRT5Δ (human SIRT5 residues 34-302) (human) (Q9NXA8 34-302, stated change not applied): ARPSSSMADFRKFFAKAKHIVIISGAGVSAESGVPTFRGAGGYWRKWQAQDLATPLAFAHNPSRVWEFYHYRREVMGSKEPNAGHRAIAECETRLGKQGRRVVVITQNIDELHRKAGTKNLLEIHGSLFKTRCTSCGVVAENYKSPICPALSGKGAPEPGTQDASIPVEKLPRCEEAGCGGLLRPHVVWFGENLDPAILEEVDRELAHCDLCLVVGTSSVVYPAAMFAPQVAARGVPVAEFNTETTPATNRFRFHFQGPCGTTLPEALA

Substance: histone H3(1-15)K9ac peptide (from UniProt P68431 2-16)
- Kd [1]: 153000 nM
- Kd [2]: 102000 nM

Substance: histone H3(1-15)K9dod peptide (from UniProt P68431 2-16)
- Kd [3]: 60 nM
- Kd [4]: 6900 nM
- Kd [5]: 4900 nM

Substance: histone H3(1-15)K9myr peptide (from UniProt P68431 2-16)
- Kd [3]: 50 nM
- Kd [4]: 800 nM

Substance: histone H3(1-15)K9bu peptide (from UniProt P68431 2-16)
- Kd [3]: 200 nM

Substance: histone H3(1-15)K9oct peptide (from UniProt P68431 2-16)
- Kd [3]: 200 nM
- Kd [2]: 700 nM

Substance: histone H3(1-15)K9pr peptide (from UniProt P68431 2-16)
- Kd [3]: 800 nM
- Kd [4]: 105000 nM

Substance: histone H3(1-15)K9hex peptide (from UniProt P68431 2-16)
- Kd [3]: 300 nM

Substance: histone H3(1-15)K9cr peptide (from UniProt P68431 2-16)
- Kd [5]: 45400 nM

Substance: histone H3(1-15)K9dec peptide (from UniProt P68431 2-16)
- Kd [3]: 200 nM
- Kd [2]: 54400 nM
- Kd [5]: 7000 nM
